Test results taken from patent US20180009871A1 (INTARCIA THERAPEUTICS, published 2018).
Where no end group is shown, it is not given here. [ ]: non-standard residue; d: D form. Aib = CC(C)(N)C(=O)O

B1: Compound A22 (peptide)
peptide: YSHGTFTSDYSKYLD[Aib]KRAQEFV[Aib]WLEDEPSSGSPPPS-OH
modifications: N-terminus assumed
SMILES: CC(C)C[C@H](NC(=O)[C@H](Cc1ccc(O)cc1)NC(=O)[C@H](CCCCN)NC(=O)[C@H](CO)NC(=O)[C@H](Cc1ccc(O)cc1)NC(=O)[C@H](CC(=O)O)NC(=O)[C@H](CO)NC(=O)[C@@H](NC(=O)[C@H](Cc1ccccc1)NC(=O)[C@@H](NC(=O)CNC(=O)[C@H](Cc1c[nH]cn1)NC(=O)[C@H](CO)NC(=O)[C@@H](N)Cc1ccc(O)cc1)[C@@H](C)O)[C@@H](C)O)C(=O)N[C@@H](CC(=O)O)C(=O)NC(C)(C)C(=O)N[C@@H](CCCCN)C(=O)N[C@@H](CCCNC(=N)N)C(=O)N[C@@H](C)C(=O)N[C@@H](CCC(N)=O)C(=O)N[C@@H](CCC(=O)O)C(=O)N[C@@H](Cc1ccccc1)C(=O)N[C@H](C(=O)NC(C)(C)C(=O)N[C@@H](Cc1c[nH]c2ccccc12)C(=O)N[C@@H](CC(C)C)C(=O)N[C@@H](CCC(=O)O)C(=O)N[C@@H](CC(=O)O)C(=O)N[C@@H](CCC(=O)O)C(=O)N1CCC[C@H]1C(=O)N[C@@H](CO)C(=O)N[C@@H](CO)C(=O)NCC(=O)N[C@@H](CO)C(=O)N1CCC[C@H]1C(=O)N1CCC[C@H]1C(=O)N1CCC[C@H]1C(=O)N[C@@H](CO)C(=O)O)C(C)C
B2: Compound A21 (peptide)
peptide: YSHGTFTSDYSKYLD[Aib]KRAQEFV[Aib]WLEDEPSSGEPPPS-OH
modifications: N-terminus assumed
SMILES: CC(C)C[C@H](NC(=O)[C@H](Cc1ccc(O)cc1)NC(=O)[C@H](CCCCN)NC(=O)[C@H](CO)NC(=O)[C@H](Cc1ccc(O)cc1)NC(=O)[C@H](CC(=O)O)NC(=O)[C@H](CO)NC(=O)[C@@H](NC(=O)[C@H](Cc1ccccc1)NC(=O)[C@@H](NC(=O)CNC(=O)[C@H](Cc1c[nH]cn1)NC(=O)[C@H](CO)NC(=O)[C@@H](N)Cc1ccc(O)cc1)[C@@H](C)O)[C@@H](C)O)C(=O)N[C@@H](CC(=O)O)C(=O)NC(C)(C)C(=O)N[C@@H](CCCCN)C(=O)N[C@@H](CCCNC(=N)N)C(=O)N[C@@H](C)C(=O)N[C@@H](CCC(N)=O)C(=O)N[C@@H](CCC(=O)O)C(=O)N[C@@H](Cc1ccccc1)C(=O)N[C@H](C(=O)NC(C)(C)C(=O)N[C@@H](Cc1c[nH]c2ccccc12)C(=O)N[C@@H](CC(C)C)C(=O)N[C@@H](CCC(=O)O)C(=O)N[C@@H](CC(=O)O)C(=O)N[C@@H](CCC(=O)O)C(=O)N1CCC[C@H]1C(=O)N[C@@H](CO)C(=O)N[C@@H](CO)C(=O)NCC(=O)N[C@@H](CCC(=O)O)C(=O)N1CCC[C@H]1C(=O)N1CCC[C@H]1C(=O)N1CCC[C@H]1C(=O)N[C@@H](CO)C(=O)O)C(C)C
B3: Compound A23 (peptide)
peptide: YSHGTFTSDYSKYLD[Aib]KRAQEFV[Aib]WLEDEPSSKAPPPS-OH
modifications: N-terminus assumed
SMILES: CC(C)C[C@H](NC(=O)[C@H](Cc1ccc(O)cc1)NC(=O)[C@H](CCCCN)NC(=O)[C@H](CO)NC(=O)[C@H](Cc1ccc(O)cc1)NC(=O)[C@H](CC(=O)O)NC(=O)[C@H](CO)NC(=O)[C@@H](NC(=O)[C@H](Cc1ccccc1)NC(=O)[C@@H](NC(=O)CNC(=O)[C@H](Cc1c[nH]cn1)NC(=O)[C@H](CO)NC(=O)[C@@H](N)Cc1ccc(O)cc1)[C@@H](C)O)[C@@H](C)O)C(=O)N[C@@H](CC(=O)O)C(=O)NC(C)(C)C(=O)N[C@@H](CCCCN)C(=O)N[C@@H](CCCNC(=N)N)C(=O)N[C@@H](C)C(=O)N[C@@H](CCC(N)=O)C(=O)N[C@@H](CCC(=O)O)C(=O)N[C@@H](Cc1ccccc1)C(=O)N[C@H](C(=O)NC(C)(C)C(=O)N[C@@H](Cc1c[nH]c2ccccc12)C(=O)N[C@@H](CC(C)C)C(=O)N[C@@H](CCC(=O)O)C(=O)N[C@@H](CC(=O)O)C(=O)N[C@@H](CCC(=O)O)C(=O)N1CCC[C@H]1C(=O)N[C@@H](CO)C(=O)N[C@@H](CO)C(=O)N[C@@H](CCCCN)C(=O)N[C@@H](C)C(=O)N1CCC[C@H]1C(=O)N1CCC[C@H]1C(=O)N1CCC[C@H]1C(=O)N[C@@H](CO)C(=O)O)C(C)C
B4: Compound A24 (peptide)
peptide: YSHGTFTSDYSKYLD[Aib]KRAQEFV[Aib]WLEDEPSSKGAPPPS-OH
modifications: N-terminus assumed
SMILES: CC(C)C[C@H](NC(=O)[C@H](Cc1ccc(O)cc1)NC(=O)[C@H](CCCCN)NC(=O)[C@H](CO)NC(=O)[C@H](Cc1ccc(O)cc1)NC(=O)[C@H](CC(=O)O)NC(=O)[C@H](CO)NC(=O)[C@@H](NC(=O)[C@H](Cc1ccccc1)NC(=O)[C@@H](NC(=O)CNC(=O)[C@H](Cc1c[nH]cn1)NC(=O)[C@H](CO)NC(=O)[C@@H](N)Cc1ccc(O)cc1)[C@@H](C)O)[C@@H](C)O)C(=O)N[C@@H](CC(=O)O)C(=O)NC(C)(C)C(=O)N[C@@H](CCCCN)C(=O)N[C@@H](CCCNC(=N)N)C(=O)N[C@@H](C)C(=O)N[C@@H](CCC(N)=O)C(=O)N[C@@H](CCC(=O)O)C(=O)N[C@@H](Cc1ccccc1)C(=O)N[C@H](C(=O)NC(C)(C)C(=O)N[C@@H](Cc1c[nH]c2ccccc12)C(=O)N[C@@H](CC(C)C)C(=O)N[C@@H](CCC(=O)O)C(=O)N[C@@H](CC(=O)O)C(=O)N[C@@H](CCC(=O)O)C(=O)N1CCC[C@H]1C(=O)N[C@@H](CO)C(=O)N[C@@H](CO)C(=O)N[C@@H](CCCCN)C(=O)NCC(=O)N[C@@H](C)C(=O)N1CCC[C@H]1C(=O)N1CCC[C@H]1C(=O)N1CCC[C@H]1C(=O)N[C@@H](CO)C(=O)O)C(C)C
B5: Compound A20 (peptide)
peptide: YSHGTFTSDYSKYLD[Aib]KRAQEFV[Aib]WLEDEPSSGKPPPS-OH
modifications: N-terminus assumed
SMILES: CC(C)C[C@H](NC(=O)[C@H](Cc1ccc(O)cc1)NC(=O)[C@H](CCCCN)NC(=O)[C@H](CO)NC(=O)[C@H](Cc1ccc(O)cc1)NC(=O)[C@H](CC(=O)O)NC(=O)[C@H](CO)NC(=O)[C@@H](NC(=O)[C@H](Cc1ccccc1)NC(=O)[C@@H](NC(=O)CNC(=O)[C@H](Cc1c[nH]cn1)NC(=O)[C@H](CO)NC(=O)[C@@H](N)Cc1ccc(O)cc1)[C@@H](C)O)[C@@H](C)O)C(=O)N[C@@H](CC(=O)O)C(=O)NC(C)(C)C(=O)N[C@@H](CCCCN)C(=O)N[C@@H](CCCNC(=N)N)C(=O)N[C@@H](C)C(=O)N[C@@H](CCC(N)=O)C(=O)N[C@@H](CCC(=O)O)C(=O)N[C@@H](Cc1ccccc1)C(=O)N[C@H](C(=O)NC(C)(C)C(=O)N[C@@H](Cc1c[nH]c2ccccc12)C(=O)N[C@@H](CC(C)C)C(=O)N[C@@H](CCC(=O)O)C(=O)N[C@@H](CC(=O)O)C(=O)N[C@@H](CCC(=O)O)C(=O)N1CCC[C@H]1C(=O)N[C@@H](CO)C(=O)N[C@@H](CO)C(=O)NCC(=O)N[C@@H](CCCCN)C(=O)N1CCC[C@H]1C(=O)N1CCC[C@H]1C(=O)N1CCC[C@H]1C(=O)N[C@@H](CO)C(=O)O)C(C)C
B6: Compound A25 (peptide)
peptide: YSHGTFTSDYSKYLD[Aib]KRAQEFV[Aib]WLEDEPSSGAPPPSS-OH
modifications: N-terminus assumed
SMILES: CC(C)C[C@H](NC(=O)[C@H](Cc1ccc(O)cc1)NC(=O)[C@H](CCCCN)NC(=O)[C@H](CO)NC(=O)[C@H](Cc1ccc(O)cc1)NC(=O)[C@H](CC(=O)O)NC(=O)[C@H](CO)NC(=O)[C@@H](NC(=O)[C@H](Cc1ccccc1)NC(=O)[C@@H](NC(=O)CNC(=O)[C@H](Cc1c[nH]cn1)NC(=O)[C@H](CO)NC(=O)[C@@H](N)Cc1ccc(O)cc1)[C@@H](C)O)[C@@H](C)O)C(=O)N[C@@H](CC(=O)O)C(=O)NC(C)(C)C(=O)N[C@@H](CCCCN)C(=O)N[C@@H](CCCNC(=N)N)C(=O)N[C@@H](C)C(=O)N[C@@H](CCC(N)=O)C(=O)N[C@@H](CCC(=O)O)C(=O)N[C@@H](Cc1ccccc1)C(=O)N[C@H](C(=O)NC(C)(C)C(=O)N[C@@H](Cc1c[nH]c2ccccc12)C(=O)N[C@@H](CC(C)C)C(=O)N[C@@H](CCC(=O)O)C(=O)N[C@@H](CC(=O)O)C(=O)N[C@@H](CCC(=O)O)C(=O)N1CCC[C@H]1C(=O)N[C@@H](CO)C(=O)N[C@@H](CO)C(=O)NCC(=O)N[C@@H](C)C(=O)N1CCC[C@H]1C(=O)N1CCC[C@H]1C(=O)N1CCC[C@H]1C(=O)N[C@@H](CO)C(=O)N[C@@H](CO)C(=O)O)C(C)C
B7: Compound A26 (peptide)
peptide: YSHGTFTSDYSKYLD[Aib]KRAQEFV[Aib]WLEDEPSSGAPPPSE-OH
modifications: N-terminus assumed
SMILES: CC(C)C[C@H](NC(=O)[C@H](Cc1ccc(O)cc1)NC(=O)[C@H](CCCCN)NC(=O)[C@H](CO)NC(=O)[C@H](Cc1ccc(O)cc1)NC(=O)[C@H](CC(=O)O)NC(=O)[C@H](CO)NC(=O)[C@@H](NC(=O)[C@H](Cc1ccccc1)NC(=O)[C@@H](NC(=O)CNC(=O)[C@H](Cc1c[nH]cn1)NC(=O)[C@H](CO)NC(=O)[C@@H](N)Cc1ccc(O)cc1)[C@@H](C)O)[C@@H](C)O)C(=O)N[C@@H](CC(=O)O)C(=O)NC(C)(C)C(=O)N[C@@H](CCCCN)C(=O)N[C@@H](CCCNC(=N)N)C(=O)N[C@@H](C)C(=O)N[C@@H](CCC(N)=O)C(=O)N[C@@H](CCC(=O)O)C(=O)N[C@@H](Cc1ccccc1)C(=O)N[C@H](C(=O)NC(C)(C)C(=O)N[C@@H](Cc1c[nH]c2ccccc12)C(=O)N[C@@H](CC(C)C)C(=O)N[C@@H](CCC(=O)O)C(=O)N[C@@H](CC(=O)O)C(=O)N[C@@H](CCC(=O)O)C(=O)N1CCC[C@H]1C(=O)N[C@@H](CO)C(=O)N[C@@H](CO)C(=O)NCC(=O)N[C@@H](C)C(=O)N1CCC[C@H]1C(=O)N1CCC[C@H]1C(=O)N1CCC[C@H]1C(=O)N[C@@H](CO)C(=O)N[C@@H](CCC(=O)O)C(=O)O)C(C)C

Tests used:
[1] = target: human glucagon receptor (GCGR) (human, UniProt P47871 26-477); assay: cell-based or functional assay
[2] = target: human GLP-1 receptor (GLP-1R) (human, UniProt P43220 24-463); assay: cell-based or functional assay
human GLP-1 receptor (GLP-1R), sequence (P43220 24-463): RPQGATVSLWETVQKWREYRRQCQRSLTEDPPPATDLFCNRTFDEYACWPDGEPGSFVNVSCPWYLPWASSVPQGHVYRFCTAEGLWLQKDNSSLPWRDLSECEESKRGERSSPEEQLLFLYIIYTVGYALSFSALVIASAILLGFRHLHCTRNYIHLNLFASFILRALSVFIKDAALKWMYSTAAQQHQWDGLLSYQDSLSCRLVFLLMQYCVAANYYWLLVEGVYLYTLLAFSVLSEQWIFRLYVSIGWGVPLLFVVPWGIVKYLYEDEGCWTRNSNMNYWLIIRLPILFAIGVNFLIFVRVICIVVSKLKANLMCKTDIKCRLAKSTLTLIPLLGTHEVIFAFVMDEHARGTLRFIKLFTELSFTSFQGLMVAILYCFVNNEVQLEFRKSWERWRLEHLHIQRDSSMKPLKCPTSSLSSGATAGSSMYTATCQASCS

| Binder | hGCGR pEC50 (cAMP) [1] [pEC50] | hGLP1 pEC50 (cAMP) [2] [pEC50] |
| --- | --- | --- |
| B1 | 11 | < 9 |
| B2 | 11.1 | < 9 |
| B3 | 11.2 | < 9 |
| B4 | 12.2 | < 9 |
| B5 | 13.3 | < 9 |
| B6 | 11.3 | < 9 |
| B7 | 11.1 | < 9 |
